Here are results for 12 molecules from US20170137818A1, “APTAMER INHIBITING BIOLOGICAL ACTIVITY OF AUTOTAXIN BY BINDING WITH AUTOTAXIN, AND USE THEREOF” (RIBOMIC INC., priority 2014, published 2017).

What is called IC50 is the concentration at which inhibition is half-maximal.

Series [1] has as its target T1, autotaxin (Homo sapiens, UniProt Q13822).
T1 construct: His; purchased R&D
Kind of series: Biacore surface plasmon resonance, nucleic acid immobilized on SA chip, autotaxin as analyte. The series is classed as binding. The following applies: nucleic acid immobilized about 1500 RU, autotaxin 0.02 μM as analyte; maximum RU relative to SEQ ID NO: 10. As to the method:
Biacore T100 manufactured by GE Healthcare is used for the measurement of binding strength. In one measurement method, an aptamer is first immobilized on a sensorchip. The immobilization amount is set to about 1500 RU. An autotaxin solution as an analyte prepared to 0.020 μM is injected by 20 μL, and binding of the autotaxin to the aptamer is detected.
All nucleic acids shown in SEQ ID NOs: 4-10 were produced by chemical synthesis. The binding activity of these nucleic acids to autotaxin was evaluated by the surface plasmon resonance method. For the measurement, Biacore T100 manufactured by GE Healthcare was used. The SA chips with streptavidin immobilized thereon were used as the sensor chips. Binding thereto was about 1500 RU of 16 nucleotide Poly dT of which biotin was bound to the 5′-terminus. The nucleic acids used as a ligand were added with Poly A (16 nucleotides) to the 3′-terminus, and were immobilized on SA chips by T-A annealing. The nucleic acids (20 μL) were injected at a flow rate of 20 μL/min to immobilize about 1500 RU of the nucleic acids. An autotaxin for analyte was prepared at 0.02 μM, and 20 μL thereof was injected. As a running buffer, solution A (mixed solution of 145 mM sodium chloride, 5.4 mM potassium chloride, 1.8 mM calcium chloride, 0.8 mM magnesium chloride, 20 mM Tris (pH 7.6), 0.05% Tween20) was used.
On the technique in general: In SPR one partner is held on a chip, and binding of the other changes the refractive index at the surface.

Series [2] addresses T1, autotaxin. Kind of series: NPP2 inhibitory assay (pNP-TMP substrate). The series is classed as biochemical. To be noted: mean of 2-3 measurements ± standard deviation, >1.0 = no inhibitory activity up to 1.0 μM.
Excerpt: Whether an aptamer inhibits the enzyme activity of autotaxin can be evaluated, for example, by the following test. As a substrate of autotaxin, phosphodiester bond-containing synthetic substrate p-nitrophenyl thymidine 5′-monophosphate (pNP-TMP) (SIGMA) is used. A phosphodiester bond is cleaved by hydrolysis, and p-nitrophenol is liberated. The p-nitrophenol develops a yellow color, and the color is detected. For the assay, a 96-well plate (96-Well EIAsurasshuRIA Polystyrene Plates, Costar) was used, and the amount of the reaction mixture was 200 μL. Nucleic acid was prepared in solution A (see below-mentioned Example 1) (100 μL), pNP-TMP (20 μL) adjusted to 10 mM in the reaction mixture A was added, and the mixture was stirred well and heated at 37° C. for 5 min. On the other hand, 6 ng of autotaxin (Recombinant Human, manufactured by R&D) diluted with solution A was prepared (80 μL), and heated at 37° C. for 5 min. After heating, they were mixed to start an enzyme reaction. The final autotaxin concentration in the reaction solution was 0.3 nM, and the final substrate concentration was 1 mM. A plate containing the reaction mixture was heated at 37° C. for 24 hr, placed in a microplate reader SpectraMax190 (manufactured by Molecular Devices) and the absorbance was determined at wavelength 405 nm. The absorbance when nucleic acid is not added as 100% (A0), an enzyme activity rate was determined from the absorbance (A) of each test substance and according to the following formula.
Enzyme activity rate=(A/A0)×100
(§1) The concentration (IC50) of an inhibitor necessary for inhibiting the enzyme activity by 50% was determined.
Whether these nucleic acids show an autotaxin inhibitory activity was evaluated by the following method. As a substrate of autotaxin, phosphodiester bond-containing synthetic substrate p-nitrophenyl thymidine 5′-monophosphate (pNP-TMP) (SIGMA) was selected (hereinafter to be referred to as NPP2 inhibitory assay). A phosphodiester bond is cleaved by hydrolysis, and p-nitrophenol is liberated. The p-nitrophenol develops a yellow color, and the color is detected. For the assay, a 96-well plate (96-Well EIA/RIA Polystyrene Plates, Costar) was used, and the amount of the reaction mixture was 200 μL. As the reaction mixture, solution A was used. Nucleic acids were prepared in solution A (100 μL), pNP-TMP (20 μL) adjusted to 10 mM in the reaction mixture A was added, and the mixture was stirred well and heated at 37° C. for 5 min. On the other hand, 6 ng of autotaxin diluted with solution A was prepared (80 μL), and heated at 37° C. for 5 min. After heating, they were mixed to start enzyme reaction. The final autotaxin concentration in the reaction solution was 0.3 nM, and the final substrate concentration was 1 mM. A plate containing the reaction mixture was heated at 37° C. for 24 hr, placed in a microplate reader SpectraMax190 (manufactured by Molecular Devices) and the absorbance was determined at wavelength 405 nm. The absorbance when nucleic acids are not added as 100% (A0), an […] was determined from the absorbance (A) of each test substance and according to the following formula.
as §1

Series [3] concerns the target T1, autotaxin. Kind of series: Biacore surface plasmon resonance, autotaxin immobilized on CM4 chip, nucleic acid as analyte. The series is classed as binding. To be noted: maximum RU relative to SEQ ID NO: 22.
Where [4] appears, read: Table 1, autotaxin 0.3 nM, pNP-TMP 1 mM, 37° C. 24 hr.

B1: 4 (nucleic acid)
chain: GTGGTCTAGCTGTACTCTCCGGAACCAGAGCAATTTGGTCGAGCGCTATCGGATGGTCCACAGTCAACGAGCTA
modifications: aptamer; DNA, backbone and methylation of C not given here
Regarding B1, the “Binding activity by Biacore” value in the series with autotaxin [1] is reported as “+ (not less than that)”. The same molecule showed an IC50 in the series with autotaxin [2] (setting [4]) of 16 ± 6 nM.

B2: 9 (nucleic acid)
chain: GTGGTCTAGCTGTACTCAGGCCGGAACCGGTGAAATTGGTCGCCTAATAAGCGAAATCCACAGTCAACGAGCTA
modifications: aptamer; DNA, backbone and methylation of C not given here
As for B2, the “Binding activity by Biacore” value with autotaxin [1] was “+ (not less than that)”. In the series with autotaxin [2] (setting [4]), the IC50 is 36 ± 4 nM.

B3: 8 (nucleic acid)
chain: GTGGTCTAGCTGTACTCCGAAAGCCGGAACCGTGCCAATGGTCGCTACTTCAGCTCCCCACAGTCAACGAGCTA
modifications: aptamer; DNA, backbone and methylation of C not given here
For B3, the “Binding activity by Biacore” value with autotaxin [1] is “+ (not less than that)”. Also, half-maximal inhibition with autotaxin [2] (setting [4]) (IC50) was put at 10 ± 2 nM.

B4: 5 (nucleic acid)
chain: GTGGTCTAGCTGTACTCATGGACGGAACCAGAATACTTTTGGTCTCCATTGAGTACGCCACAGTCAACGAGCTA
modifications: aptamer; DNA, backbone and methylation of C not given here
B4: the “Binding activity by Biacore” value with autotaxin [1] is recorded as “+ (not less than that)”. This molecule had an IC50 in the series with autotaxin [2] (setting [4]) of 11 ± 5 nM.

B5: 25 (nucleic acid)
chain: ACACTCACAGGCGCTGGCGACGTCGGAACCGTGTACCATGGTCACGTCGTGCATGGCCGCTAGT
modifications: aptamer; DNA, backbone and methylation of C not given here
The molecule B5 gave an IC50 with autotaxin [2] (Table 3) of 31 ± 5.7 nM. Besides, the “Binding activity by Biacore” value with autotaxin [3] was “+ (not less than that)”.

B6: 22 (nucleic acid)
chain: ACACTCACAGGCGCTGGCCGGAACCGTGCATATGGTCGCCAGCACATCGTGCATGGCCGCTAGT
modifications: aptamer; DNA, backbone and methylation of C not given here
Molecule B6 gave an IC50 with autotaxin [2] (Table 3) of 30 ± 11 nM. Besides, the “Binding activity by Biacore” value with autotaxin [3] is listed as “+ (not less than that)”.

B7: 10 (nucleic acid)
chain: GTGGTCTAGCTGTACTCGCCGGAACCGTACTATGGTCGCGTTGTATGACGCTTGTATCCACAGTCAACGAGCTA
modifications: aptamer; DNA, backbone and methylation of C not given here
Consider B7, for which the “Binding activity by Biacore” value in the series with autotaxin [1] is listed as “+ (not less than that)”. In addition, in the series with autotaxin [2] (setting [4]), 21 ± 6 nM corresponded to half-maximal inhibition (IC50).

B8: 24 (nucleic acid)
chain: ACACTCACAGGCGCTGGCGAGTCGGAACCGAGCCGATTGGTCACTCGCGTGCATGGCCGCTAGT
modifications: aptamer; DNA, backbone and methylation of C not given here
B8 showed an IC50 with autotaxin [2] (Table 3) of 32 ± 4.2 nM. For the same molecule, in the series with autotaxin [3], the “Binding activity by Biacore” value was “+ (not less than that)”.

B9: 21 (nucleic acid)
chain: ACACTCACAGGCGCTGGCCACCACTGCACCGGAACCGCGAATGTGGTCGTGCATGGCCGCTAGT
modifications: aptamer; DNA, backbone and methylation of C not given here
Turning to B9, 28 ± 11 nM corresponded to half-maximal inhibition with autotaxin [2] (Table 3) (IC50). In the series with autotaxin [3], the “Binding activity by Biacore” value is “+ (not less than that)”.

B10: 6 (nucleic acid)
chain: GTGGTCTAGCTGTACTCGGAACCGTACTCAACGGTCAGTACCTTTGCGCCGCAGCAAGCCACAGTCAACGAGCTA
modifications: DNA, backbone and methylation of C not given here
For B10, the “Binding activity by Biacore” value with autotaxin [1] was “+ (not less than that)”. For the same molecule, the IC50 with autotaxin [2] (setting [4]) was determined as 20 nM.

B11: 20 (nucleic acid)
chain: ACACTCACAGGCGCTGGGGTACGCTCGGAACCGAGGCAATTGGTCAGCGTGCATGGCCGCTAGT
modifications: aptamer; DNA, backbone and methylation of C not given here
B11 had an IC50 with autotaxin [2] (Table 3) of 37 ± 2 nM. Moreover, the “Binding activity by Biacore” value in the series with autotaxin [3] was “+ (not less than that)”.

B12: 23 (nucleic acid)
chain: ACACTCACAGGCGCTGGCACGGACCGGAACCGGGACGCTCGGTCGACCGTGCATGGCCGCTAGT
modifications: aptamer; DNA, backbone and methylation of C not given here
Consider B12, for which, in the series with autotaxin [2] (Table 3), inhibition was half-maximal at 75 nM (IC50). In addition, the “Binding activity by Biacore” value with autotaxin [3] is recorded as “+ (not less than that)”.
